T1: human guanylate-binding protein 1 (hGBP1), full-length (human, UniProt P32455 1-592, NT-647-NHS label (in the MST assay only))
T1 construct: full-length in the crystallized complex; in MST it was fluorescently labelled (NT-647-NHS) and no nucleotide is mentioned
T1 sequence (looked up): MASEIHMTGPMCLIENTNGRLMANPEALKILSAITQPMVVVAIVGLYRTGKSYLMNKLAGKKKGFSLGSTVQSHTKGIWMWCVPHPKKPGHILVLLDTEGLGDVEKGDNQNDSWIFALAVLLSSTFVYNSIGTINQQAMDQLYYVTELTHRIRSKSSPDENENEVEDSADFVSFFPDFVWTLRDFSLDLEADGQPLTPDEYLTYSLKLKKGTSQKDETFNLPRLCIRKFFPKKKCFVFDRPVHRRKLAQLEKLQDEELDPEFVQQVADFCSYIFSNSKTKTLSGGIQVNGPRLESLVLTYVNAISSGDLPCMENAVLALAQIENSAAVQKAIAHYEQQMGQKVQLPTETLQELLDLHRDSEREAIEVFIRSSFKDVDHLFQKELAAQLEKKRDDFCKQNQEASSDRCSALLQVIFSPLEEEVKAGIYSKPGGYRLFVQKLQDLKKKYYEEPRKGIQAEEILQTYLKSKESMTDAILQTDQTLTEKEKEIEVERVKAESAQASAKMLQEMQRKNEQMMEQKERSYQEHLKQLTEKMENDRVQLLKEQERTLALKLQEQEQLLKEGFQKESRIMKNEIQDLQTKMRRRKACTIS

B1: IpaH9.8^LRR (22–244), LRR domain of IpaH9.8 (domain or fragment)
chain: TYADYFSAWDKWEKQALPGEERDEAVSRLKECLINNSDELRLDRLNLSSLPDNLPAQITLLNVSYNQLTNLPELPVTLKKLYSASNKLSELPVLPPALESLQVQHNELENLPALPDSLLTMNISYNEIVSLPSLPQALKNLRATRNFLTELPAFSEGNNPVVREYFFDRNQISHIPESILNLRNECSIHISDNPLSSHALPALQRLTSSPDYHGPRIYFSMSD
notes: Leucine-rich repeat domain of IpaH9.8 of S. flexneri, residues 22–244 as crystallized (the plasmid section says 21–244); Plasmids section gives 21–244, crystallization section 22–244; also called IpaH9.8 LRR domain; IpaH9.8^LRR-Sub
B2: IpaH9.8 (wild type, Shigella flexneri) (enzyme)
chain: MLPINNNFSLPQNSFYNTISGTYADYFSAWDKWEKQALPGEERDEAVSRLKECLINNSDELRLDRLNLSSLPDNLPAQITLLNVSYNQLTNLPELPVTLKKLYSASNKLSELPVLPPALESLQVQHNELENLPALPDSLLTMNISYNEIVSLPSLPQALKNLRATRNFLTELPAFSEGNNPVVREYFFDRNQISHIPESILNLRNECSIHISDNPLSSHALPALQRLTSSPDYHGPRIYFSMSDGQQNTLHRPLADAVTAWFPENKQSDVSQIWHAFEHEEHANTFSAFLDRLSDTVSARNTSGFREQVAAWLEKLSASAELRQQSFAVAADATESCEDRVALTWNNLRKTLLVHQASEGLFDNDTGALLSLGREMFRLEILEDIARDKVRTLHFVDEIEVYLAFQTMLAEKLQLSTAVKEMRFYGVSGVTANDLRTAEAMVRSREENEFTDWFSLWGPWHAVLKRTEADRWAQAEEQKYEMLENEYPQRVADRLKASGLSGDADAEREAGAQVMRETEQQIYRQLTDEVLALRLPENGSQLHHS
notes: IpaH9.8, bacterial E3 ubiquitin ligase of S. flexneri; the wild-type gene was synthesised and cloned as 'IpaH9.8' into pET28M; No tag cleavage is described although the vector has a TEV site; also called IpaH9.8-WT; wild-type IpaH9.8
B3: IpaH9.8-C337A (enzyme)
chain: MLPINNNFSLPQNSFYNTISGTYADYFSAWDKWEKQALPGEERDEAVSRLKECLINNSDELRLDRLNLSSLPDNLPAQITLLNVSYNQLTNLPELPVTLKKLYSASNKLSELPVLPPALESLQVQHNELENLPALPDSLLTMNISYNEIVSLPSLPQALKNLRATRNFLTELPAFSEGNNPVVREYFFDRNQISHIPESILNLRNECSIHISDNPLSSHALPALQRLTSSPDYHGPRIYFSMSDGQQNTLHRPLADAVTAWFPENKQSDVSQIWHAFEHEEHANTFSAFLDRLSDTVSARNTSGFREQVAAWLEKLSASAELRQQSFAVAADATESAEDRVALTWNNLRKTLLVHQASEGLFDNDTGALLSLGREMFRLEILEDIARDKVRTLHFVDEIEVYLAFQTMLAEKLQLSTAVKEMRFYGVSGVTANDLRTAEAMVRSREENEFTDWFSLWGPWHAVLKRTEADRWAQAEEQKYEMLENEYPQRVADRLKASGLSGDADAEREAGAQVMRETEQQIYRQLTDEVLALRLPENGSQLHHS
notes: IpaH9.8 of S. flexneri with the active cysteine changed (C337A); mutants made by PCR-based mutagenesis; likely the same as m1
B4: IpaH9.8-R166A (enzyme)
chain: MLPINNNFSLPQNSFYNTISGTYADYFSAWDKWEKQALPGEERDEAVSRLKECLINNSDELRLDRLNLSSLPDNLPAQITLLNVSYNQLTNLPELPVTLKKLYSASNKLSELPVLPPALESLQVQHNELENLPALPDSLLTMNISYNEIVSLPSLPQALKNLRATANFLTELPAFSEGNNPVVREYFFDRNQISHIPESILNLRNECSIHISDNPLSSHALPALQRLTSSPDYHGPRIYFSMSDGQQNTLHRPLADAVTAWFPENKQSDVSQIWHAFEHEEHANTFSAFLDRLSDTVSARNTSGFREQVAAWLEKLSASAELRQQSFAVAADATESCEDRVALTWNNLRKTLLVHQASEGLFDNDTGALLSLGREMFRLEILEDIARDKVRTLHFVDEIEVYLAFQTMLAEKLQLSTAVKEMRFYGVSGVTANDLRTAEAMVRSREENEFTDWFSLWGPWHAVLKRTEADRWAQAEEQKYEMLENEYPQRVADRLKASGLSGDADAEREAGAQVMRETEQQIYRQLTDEVLALRLPENGSQLHHS
notes: IpaH9.8 of S. flexneri with Arg166 changed to alanine; mutants made by PCR-based mutagenesis; likely the same as m1; also called IpaH9.8 mutant R166A

Assays:
[1] = target: T1, human guanylate-binding protein 1 …; assay: crystal structure; 0.3 mM IpaH9.8^LRR (22–244) mixed with 0.3 mM full-length hGBP1 and 5 mM GDP; 3.5 M NaCl, 0.1 M sodium citrate pH 6.5, 20 °C; space group P6122, one heterodimer in the asymmetric unit; settings: both partners purified
[2] = target: the molecule itself; assay: native gel or EMSA; Native-PAGE of IpaH9.8 and IpaH9.8-C337A under reducing and non-reducing conditions
[3] = target: T1, human guanylate-binding protein 1 …; assay: MST; 75 nM NT-647-NHS-labeled hGBP1 in PBS pH 7.4; IpaH9.8 titrated in, 30 min at room temperature; Monolith NT.Automated; settings: both partners purified

Row | Binder | binding result [1] | binding result [2] | binding result [3]
1 | B1 | binds |  | 
2 | B2 |  | binds | binds
3 | B3 |  | binds | 
4 | B4 |  |  | binds

— article PMC7728815, “Substrate-binding destabilizes the hydrophobic cluster to relieve the autoinhibition of bacterial ubiquitin ligase IpaH9.8” (Communications Biology, 2020)
